Assay results taken from the domain aggregation screens of Martell et al. (2025).

Experiment: soluble fraction after stress (log2 fold change); higher = more stays soluble; pooled small domains, quantitative proteomics
Conditions: stress: 75 degC
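Further: 20 min heating vs room temperature control held 20 min.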

| Sequence | soluble fraction (log2) |
| --- | --- |
| HMAAADLNMRAKLADLGGMSYGELSIWEKTHGMEFAAWEHEWEKLNSGTQADGLKFPKHLPEGFPT | 0.185 |
| HMAAAKDVMDWQNAIRGLTDAKGKPYSPTYLKTVHNQLSALFNHAVRYYGLQVNPAAKAGNMGVEE | -0.131 |
| HMAADDGSARAEQLREMYSLISGLDKLDKAIILMWLDERSYDEIAEVTGFTRNNVATRLHRIKSRLARQSN | -1.66 |
| HMAAEIGSGVVDAYDLRLRSQPSTDAETIIYLDNGAKLSVQEDLGDWYKVVSGTYTGYVSAEYVAYTPSPE | -0.806 |
| HMAAELHPYGADSYRGDNPPAGYEIKAKEESKKFHTPSSPWYGRTIAEIWFRTEEAAEAAGFINAVK | -0.246 |
| HMAAELQALSVRELEVLDQLAGGASNREIAQRLYISENTVRNHVHSILTKLKLQNRTQLVGMT | -0.981 |
| HMAAESWTEKSRALAAAGLVVMGRDAQTKIEELTNLAPLIEAANASNTRLLTSQSIDELLSIVPTEENL | 0.0818 |
| HMAAGKGVTTGSVRLRKGSNTDSAIIATLKKDTELILYGKKDGWYSVKTSDGTEGFVSSKYVKVTEAY | 0.61 |
| HMAAGLTPKQKAFADNYIKNGGNAAEAARAAGYSLKNVGANAGKLLKNPKIAAYIAEKQAELDRRNGT | 0.196 |
| HMAAINPSALREPATPPEQLSAGDSVLHPRFGRGEILELQQQGGDPRAIVQFINEPKPRTLVLRYAQLRK | -0.138 |
| HMAAKADAVKKAIAAIGKVDASEDSKAKVEAARKAYAALTEDQKKLVEASQLKLLTEAEAAYQQAVEESKK | -0.283 |
| HMAAMSLGERIGAHRKRMGISQEELGHRMGVSRQAVSKWETGRAVPDMENLLALARLFGVPVSELAD | -0.129 |
| HMAAPVGLTQRQMEVAALVADGLTNAEIGRRLHITERSAESHLERVRIRLGFRSRAQVAAWFVTQE | -3.56 |
| HMAATHYEGIKQDGETDDAVIERVLTGLSVTANKDDIFIVKTLIAGTKYSYTAYVYNGNAWAAM | -1.38 |
| HMAATSTGFPGVEVRGNSIRVFFMYKRDRHAHTLPLEPTRNNIKHADQLRSAALFALRNGTYNEADFFPHS | -1.6 |
| HMAATVKVPDLTKMTPDEAQRALGQVGLKGKQGDDVDDDSVPVGYIAKQDEAPNSDAKAGDTITYHL | 0.15 |
| HMAAVSSHAVKQRIRSLIQAEDPASPLSDEALRLALSALGVEVSRRAVAKYRTSMDIPASSQRKK | -0.656 |
| HMADEDTILALAKEILASWPDKVEAYKNGNKGMLGLFMGELMKKSGGKANPKSASALIQKLLE | -0.13 |
| HMADEIQLVVQVNGKLRGRIMVAPDASREEIEKTALADADVSRFLGDTPVKKVIIVPKRLVNIVAPAPK | -1.08 |
| HMADENIELRKAGLKVTLPRVKILQILEAAKEPHMSAEDVYKALMEANEEVGLATVYRVLTQFESAGL | -0.245 |
| HMADGKWTLTDAGYTFTYSDGRKARGTWEDIDGEWYHFDRNGIMETGWKTVGNIRYHFNQDGSL | -1.52 |
| HMADIGRMKELIDILNRASAVYYQGKDEIMSNFEYDKLYDELVSLEKESGLVLAGSPTQKVGY | -0.179 |
| HMADKHVAAALLKLMDHLVGGRQYAFMKGRLTINKKVVLEATEVSAYRRGTGLSDADWQQRYE | -2.06 |
| HMADLKRLNEQIHYLGQYLSTKATYKEFLQANNKKIYRSEHQDEIAKYEEAAQFLKRSSPDGTIPTMKDLR | -0.27 |
| HMADLSAYAGKEGMTDSVLRPSGKVDIEGHILDAVSRGDFIEKGKRVIVIKAEGSYLVVKKRMP | -1.84 |
| HMADLTEEQKTLFRLIRDLQPVSSKTLLENSGFTRSTQTRLLNGLIEKQIVIRTGNGPATRYSLR | -1.26 |

| Sequence | soluble fraction (log2) |
| --- | --- |
| HMADLTIDGVEYTKVSPTGTLTLEKVYTKNVTPADGQYYIQTGTKTVRVATDAEVAVIKAGGF | 0.153 |
| HMADNKDMQAAFMEALNGLKEYAKVNGNIVTKEDVNSYFKDMHLDDNKYSMITGYLMANGITIKG | 0.179 |
| HMADPRFHSEIMLSKIESLLSGKADSDVSNYSIQGRSLTKMSLQELMDARESYDGLVKSEKAKLDAKY | 0.0156 |
| HMADPVTPQDLIRWSEALAGIARTGLGFTQSLYEQERFEEVLAVAADMRVAAGSSYNPDDLVHEWMKSVG | -0.565 |
| HMADQVVGQLGMVTQRIDNLQQTGRVSANGLDWAARSENGQPIPQGMPVEVLRIEGVKLIVRPVN | -0.114 |
| HMADTIEVVVQVNGKVRAKISTSPEVFADSTKLQELALADANVQKFIAGQTIRKVIIPKGTKLLNIV | -0.198 |
| HMADTSPEGVQKLIKAFEQFGVSKDDIEGFIQRRVDAITPANVVSLRKIFTSLRDGMSSAKDWFKGA | 0.095 |
| HMADVIKLVNTSVLNVRSGAGINYSKIGSLTQGTKVNIISESNGWSKINYNGKIGYISSQYVSEVS | -1.92 |
| HMADVLLKHGSSGDYVWDLQYRLKTLSLFDQEMTGYFGPHTRQAVVNFQRKYGLPADGVVGPATWRALRK | -2.41 |
| HMADVPSTIFEAYRILGLNPEAPPVAVKKVVDALRMSWHPDHARSEPDRRHREERIKQINAAWDLLKGV | -0.183 |
| HMADVYFDGKFLGETPVTVAVSTTGKPAHEISLIRGGYEPWSTTYQGNPRPGQTATVMAILVHA | 0.31 |
| HMAEAAVELSQQILARLLEAGGSLPLSDKSSPEDIHRLFGVSKRTFKKAIGGLYKKGLILIHPERIELP | -1.37 |
| HMAEAETVKFVGNSLLLVSGAAKGERLSVYTVGGQHVLSADATKPVDVAALHSGVYVVRTTNGVITKIVK | -1.25 |
| HMAEATATVTASEMVVRSGPSSSYSVLGSLEKGTVVTVLAASDGIAKISYKGNTGYARIVDMELNSA | -0.612 |
| HMAEDDAVQKAVREAVAESADAVADYKAGSERALNFIVGVVMKKTRGKASPGEVHRLVKAEVEK | 0.595 |
| HMAEDLRTLDGIDEDLLRDLAQAGITTRDGLAELSIDELREITGVEPGEAEKIILAARAHWFETDE | 0.0602 |
| HMAEEGEQAASNTAAQAEDRAAELAAAGEKGKQITKTLVAEFGIPKNEAYRLALDAVAAVKAER | -0.265 |
| HMAEEPLRIWTDLQGRSIEASFIKFSGNNIVIKMKSGRDYEVARSLFSPGDQKYLSDLKKSTPE | -1.5 |
| HMAEERVLSVPQSLAGERLDAALASLMPDYSRSRLASWIKEGLVTVDGAGAMPKQKLWGGETLRVQAQPT | 0.373 |
| HMAEKAVELTENEKAIQTILSNGALEIGELKTKLELSGKQWDVALKGLAKHGITQVSKVEGVVTVGL | 0.359 |
| HMAEKGIGRVNADWLNMRTSPGGEVLTVLKQGTELQVIGRSGSWLEVQHGNEQGYVSSRYITIQP | -0.356 |
| HMAEKVIVVADSITVGELAEKLNLPVTNLIGELFKNGIVSTINQRIDFETASIIVEELGLDVELERK | -0.137 |
| HMAELNLPVRKIGGEDYYYRQVKKKETIYGISKELGITKEDIIKYNPSVASGLQRNQILYFPVKDFK | -0.327 |
| HMAELVISVKADGTIHYQDRQLTKEALAAVLETRPEALLNLYVDEKAPFEAFVGVVDIARLKRGGHFVIST | -1.94 |
| HMAENPAYTKGVVNRLYKIRATPYYSYSYNVDQKTYEGRGKQYGEYENLHIGDTITVYYQRSNPSNSEA | -0.288 |
| HMAEPIEKIIIEGNQRIEALTIQSYLLLRVGEPFNRQLMNQTLKSLYATGYFSDVAVTRVSSSLLVK | 0.153 |

| Sequence | soluble fraction (log2) |
| --- | --- |
| HMAEPLEIGDTVRIIDGFYGGEIGVISELVNPDAKNAEFEQVRVRLDQDTELALPIHNVERVRL | 0.498 |
| HMAEPRVQEVYFEFDGKQVEAGQVVSLIEQAYKNEGHQIGRIKDLKVYINSEEGKAYYVINGDDGEGKYIE | 0.0727 |
| HMAESLHVTAAALFEGRAMLGIDGSRRLLRVGETSPEGVKLVSATAREAVIEIDGRRQTLAPGRDT | -0.133 |
| HMAESSLPKMPRDESKYIYHSVQPGETVYSLSKRYSVSESDIVKSNPGIDITKLSLGLEVAIPRI | 0.691 |
| HMAEVAFEEQNIEQISNLLLRIQAIFAELMTALDKEKGGEIADNLERLYVFFLEKLGDANVRKDPAP | 0.585 |
| HMAEVHVDGVTYQFSNPEQAVKFARKIAKELGLKVEVHGETVHVK | -0.0253 |
| HMAEVTLTVREQEVLHLLARGMSNGEMAAHLYVEPTTIKYHLTGLLQKTGSRDRLQAVLWGIRAGMVH | -2.81 |
| HMAEWIYGKNVVKQSIEEGMVLKLILQRKEDPLFVLAQEKQIPVEILDRHKMTSLVKSDRHQGVAAQI | -0.742 |
| HMAFEDYAGEYRSAADFAESLHEDTGTEIPESLRYYIDWQALARDMALNGEIMVFQTGFDEVHIFWS | -0.63 |
| HMAFEITSAERTRLEDIARKGLTAYTAEWKQLPASEKKALNKTGLQDFLKSMAADADSAREEEA | 0.0228 |
| HMAFKEQLKAARLAKGYTQEQLATAIGVAKSTFTGYEKGNSEPNMLTIKKLMEILEVDANYLWY | -2.91 |
| HMAFRWQQIADTITSMIANGSYPRGSRLPTEAALADSFGVNRHTVRRAVAALRDTGLVQPRQGAGVFVIG | -2.02 |
| HMAFYQDIAVDLRKQIIDGVYPKNSRLPNQAELAKLYTTSRVTIQKALKILQIEGLIEGRQGSGSYVKGP | -2.11 |
| HMAGHKVDFSELPARSQAFIGKNFPTEMVKNVEMERKDAKDHYTVLLSNGTKVMFDGTSGELTGV | 0.0762 |
| HMAGISQGLAENVERRITTLLREQKEVPVHDIDFPGISRETVGQVLHQMVQEEKLLLDDGMISLSPNQ | 0.181 |
| HMAGPAGASEVANARDGDDETPLHMAARGGYPGIVRMLLAAGAKADAKSAAGLFPWNYAEDGSELHALLPR | 0.139 |
| HMAGPTIVTNSQGVPNYHLVKRGDTVSQIAQRYGLNYRQIGAINNLDSKYTIYSGQWLKLWQG | -1.37 |
| HMAGQWQQDQNGWKYKTDNGDHMKNTWYQDSDSRWYYFGPDGYMKSSTMTPDGYVVGSDGAWIE | -0.662 |
| HMAGSGDLNAKYLASIPAPMKAKILKAVANHYGVSISEFEEEVTDKDAEALYEYIPTRSMAVQVLRDMKG | -0.829 |
| HMAGSGLPVPRFVSLADDRVNARAGPGFRFPINWVYLRKGFPVEVVDEFGPWRRIRDIDGVAAWIHLSMLS | -0.654 |
| HMAGTAFPVRIMLKGIDRIGLLNEITGYISVAMGVNMRKLNLSTEDGIFEGYIDMLVHDRTVLESMIDNL | -0.381 |
| HMAGTELASIKEIQSLVDRSEEALSARNFFWPKDKSESMLLSFRNMFSRLKLTKMDVQIFHGIFKVMEKS | 0.24 |
| HMAGVSVTSLTTFWRLAADTPDTPSGADDPSGWSRTEPSIPDGYEGKLYRTIRTIMSDGTATWTSPD | -0.728 |
| HMAGYDTYMVDRDAELLPWLLETLQRESRSKVKATLQGNGIKVNGKRVTQFNYPLKAGMKVSVSKSK | 0.0362 |
| HMAHILDLMELKQILRLHMDGLSNRRISDTLGIHRNTINSYVSQFKASKHGIEELLKLSDYELAQLFP | -2.49 |
